Here are results for four molecules from PMC10083269, “Basic characterization of antibodies targeting receptors of the tumor necrosis factor receptor superfamily” (Frontiers in Immunology, 2023).

For experiment [1], the target named is T1, TNFR2(ed)-CRD1-4-GpL (Homo sapiens, point mutant).
T1 construct: TNFR2, CRD1-CRD4 of the ectodomain (stalk region lacking); also called GpL-tagged deletion mutant of the TNFR2 ectodomain lacking the stalk region; source: HEK293T, transient transfection (PEI); not shown: GpL (Gaussia princeps luciferase), C-terminal, kept
T1 chain: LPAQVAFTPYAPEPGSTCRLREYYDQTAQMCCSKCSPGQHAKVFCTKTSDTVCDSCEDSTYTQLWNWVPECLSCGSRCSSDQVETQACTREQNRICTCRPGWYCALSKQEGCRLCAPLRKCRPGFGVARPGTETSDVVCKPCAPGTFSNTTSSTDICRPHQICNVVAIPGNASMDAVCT
The experiment can be described thus: cell-free binding of GpL-tagged receptor fragments to plate-captured antibody; plates coated with 1 µg/ml protein G, antibody (1 µg/ml) captured 1 h at 37°C, 500 ng/ml TNFR2-GpL fusion proteins added in medium for 2 h at 37°C, well-associated luminescence; irrelevant IgG1 wells subtracted. Particulars: partners not purified.

Experiment [2] concerns the target T2, TNFR2(ed)-CRD1-GpL (Homo sapiens, point mutant).
T2 construct: TNFR2, CRD1 of the ectodomain; also called GpL fusion protein of the TNFR2 CRD1 alone; source: HEK293T, transient transfection (PEI); not shown: GpL (Gaussia princeps luciferase), C-terminal, kept
T2 chain: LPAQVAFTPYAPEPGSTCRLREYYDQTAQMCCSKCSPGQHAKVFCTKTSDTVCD
The experiment is described as above. Particulars: partners not purified.

In experiment [3] the target is T3, TNFR2(ed)-CRD1-3-GpL (Homo sapiens, point mutant).
T3 construct: TNFR2, CRD1-CRD3 of the ectodomain; also called GpL-tagged deletion mutant of the TNFR2 ectodomain lacking the stalk region + CRD4; source: HEK293T, transient transfection (PEI); not shown: GpL (Gaussia princeps luciferase), C-terminal, kept
T3 chain: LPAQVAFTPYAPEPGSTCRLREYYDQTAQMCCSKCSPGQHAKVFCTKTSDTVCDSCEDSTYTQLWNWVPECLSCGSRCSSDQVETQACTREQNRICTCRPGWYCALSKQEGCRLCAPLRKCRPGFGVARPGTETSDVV
The description is as above. As to conditions: partners not purified.

Experiment [4] has as its target T4, TNFR2(ed)-CRD1-2-GpL (Homo sapiens, point mutant).
T4 construct: TNFR2, CRD1-CRD2 of the ectodomain; also called GpL-tagged deletion mutant of the TNFR2 ectodomain lacking the stalk region + CRDs 3 and 4; source: HEK293T, transient transfection (PEI); not shown: GpL (Gaussia princeps luciferase), C-terminal, kept
T4 chain: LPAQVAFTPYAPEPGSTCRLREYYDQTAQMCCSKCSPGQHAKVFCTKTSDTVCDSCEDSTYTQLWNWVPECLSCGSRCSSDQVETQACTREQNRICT
Described as above. As to conditions: partners not purified.

The target of experiment [5] is T5, CD40 on HT1080-CD40 cells (Homo sapiens, UniProt P25942).
T5 construct: CD40 expressed on HT1080-CD40 transfectants; also called CD40-expressing cells
T5 sequence (P25942 21-277): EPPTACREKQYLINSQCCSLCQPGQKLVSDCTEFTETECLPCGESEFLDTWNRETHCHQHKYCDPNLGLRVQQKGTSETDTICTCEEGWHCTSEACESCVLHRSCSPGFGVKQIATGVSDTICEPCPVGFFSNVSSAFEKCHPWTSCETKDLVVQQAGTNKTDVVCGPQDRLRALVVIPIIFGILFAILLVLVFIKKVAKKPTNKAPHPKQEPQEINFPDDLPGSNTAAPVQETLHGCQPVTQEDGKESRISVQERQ
As to the kind of experiment: cellular equilibrium binding of a GpL (luciferase) fusion protein; adherent HT1080-CD40 cells in 96-well plates (2 x 10^4 cells/well), two-fold dilution series of the GpL antibody fusion protein, 37°C, 30 min to 1 h, five washes with icecold PBS, cell-associated luminescence; non-specific binding from HT1080 cells, from cells blocked with an excess of the GpL-free antibody, or from an irrelevant IgG1-LC:GpL; one …. As to conditions: partners not purified.

For experiment [6], the target named is T6, CD40(ed)-Fc (Homo sapiens, UniProt P25942).
T6 construct: extracellular domain of CD40; coated directly on the plate; the legend's footnote says that purified TNFR(ed)-Fc can be coated directly, so it was probably purified; also called Fc fusion protein of the extracellular CD40 domain; source: HEK293T, transient transfection (said of the recombinant proteins in general)
T6 sequence (P25942 21-193): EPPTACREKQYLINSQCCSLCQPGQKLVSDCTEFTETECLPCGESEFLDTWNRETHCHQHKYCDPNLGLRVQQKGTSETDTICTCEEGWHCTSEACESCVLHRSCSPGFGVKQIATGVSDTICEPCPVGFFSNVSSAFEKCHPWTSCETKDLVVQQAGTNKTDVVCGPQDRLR
As to the kind of experiment: cell-free equilibrium binding of a GpL (luciferase) fusion protein on coated plates; black high binding 96-well plates coated with 1 µg/ml CD40(ed)-Fc in 0,1 M carbonate buffer at 4°C overnight, blocked with 10% FCS in PBS, two-fold dilution series of the GpL antibody fusion protein, 37°C, 1 h; non-specific binding from irrTNFR(ed)-Fc wells, from wells blocked with an excess of the GpL-free antibody, or from an …. As to conditions: one partner purified.

Experiment [7] has as its target T5, CD40 on HT1080-CD40 cells. The experiment can be described thus: cellular competition binding with a GpL-TNFL fusion protein; HT1080 transfectants (2 x 10^4 per well) incubated with an excess of the GpL-free antibody (10 µg/ml) or VHH Fc fusion protein for 30 minutes, then GpL-TNFL added at a concentration close to its KD (typically 1 - 100 ng/ml); remaining specific binding against TNFR negative HT1080 cells. As to conditions: partners not purified.

B1: anti-TNFR2(68/69)-IgG1(N297A) (antibody, V domains shown)
VH: QVTLKESGPALVKPTQTLTLTCTFSGFSLSTSGMGVGWIRQPPGKALEWLAHIWWDDDKFYNPSLKSRLTISKDTSKNQVVLTMTNMDPVDTATYYCARLTGTRYFDYWGQGTTVTVSS
VL: DVQMTQSPSSLSASVGDRVTITCKASQDINKFIAWYQQKPGKAPKLLIHYTSTLQPGIPSRFSGSGSGRDYTFTISSLQPEDIATYYCLQYGNLWTFGGGTKVEIK
notes: heavy chain of recombinant anti-TNFR2 IgG1(N297A) clone SBT-002 (68/69); light chain of recombinant anti-TNFR2 clone SBT-002 (68/69); IgG1 with N297A in the Fc; also called SBT-002; anti-TNFR2 antibody 68/69; source: HEK293T, transient transfection (PEI)
In the case of B1, the binding result in experiment [1] is recorded as “binds”; in experiment [2] it was “no binding (tested: 500 ng/ml)”; in experiment [3] it was “binds”; in experiment [4] it was “binds”.

B2: anti-CD40(G28.5)-IgG1-LC : GpL (antibody, V domains shown)
VH: DIQLQQSGPGLVKPSQSLSLTCSVTGYSITTNYNWNWIRQFPGNKLEWMGYIRYDGTSEYTPSLKNRVSITRDTSMNQFFLRLTSVTPEDTATYYCARLDYWGQGTLVTVSS
VL: DIVMTQNPLSLPVSLGDEASISCRSSQSLENSNGNTFLNWFFQKPGQSPQLLIYRVSNRFSGVPDRFSGSGSGTDFTLKISRVEAEDLGVYFCLQVTHVPYTFGGGTTLEIK
notes: heavy chain of recombinant anti-CD40 IgG1 clone G28.5; light chain of recombinant anti-CD40 IgG1 clone G28.5; IgG1; GpL domain on the C-terminus of the light chain; also called GpL-Ab-Fp of the CD40-specific antibody G28.5; source: HEK293T, transient transfection (PEI), cell culture supernatant; not shown: GpL (Gaussia princeps luciferase), C-terminal, kept
Turning to B2, the binding result in experiment [5] and in experiment [6] was “binds” in each case.

B3: anti-CD40(G28.5)-IgG1 (antibody, V domains shown)
VH: B2 VH
VL: B2 VL
notes: as the heavy chain of m1; as the light chain of m1, without the GpL domain; IgG1; also called GpL-free version of G28.5; source: HEK293T, transient transfection (PEI)
Consider B3, for which the binding result in experiment [5] and in experiment [6] was “binds” throughout.

B4: Anti-CD40(ADC)-IgG1 (antibody, V domains shown)
VH: EVQLLESGGGLVQPGGSLRLSCAASGFTFSTYGMHWVRQAPGKGLEWLSYISGGSSYIFYADSVRGRFTISRDNSENALYLQMNSLRAEDTAVYYCARILRGGSGMDLWGQGTLVTVSS
VL: QSVLTQPPSASGTPGQRVTISCTGSSSNIGAGYNVYWYQQLPGTAPKLLIYGNINRPSGVPDRFSGSKSGTSASLAISGLRSEDEADYYCAAWDKSISGLVFGGGTKLTVL
notes: heavy chain of recombinant anti-CD40 IgG1 clone ADC1013; light chain of recombinant anti-CD40 IgG1 clone ADC1013; IgG1; also called ADC1013; variant of the anti-CD40 antibody ADC-1013; source: HEK293T, transient transfection (PEI)
Turning to B4, in experiment [7], the binding result was “binds”.
